PMC515284, “Site-specific mutagenesis of Drosophila proliferating cell nuclear antigen enhances its effects on calf thymus DNA polymerase δ” (BMC Biochemistry, 2004)
Where a chain is given by its changes, count along the chain named. Names may count otherwise.

Target: T1, calf thymus DNA polymerase δ (two-subunit form) (bovine (endogenous in calf thymus), UniProt P28339 1-1106; P49004 1-469)
T1 construct: DNA polymerase δ larger, catalytic subunit p125, calf thymus (bovine); DNA polymerase δ smaller subunit p50, calf thymus (bovine); all experiments used the two-subunit form (p125 and p50); also called pol δ; calf thymus pol δ; source: purified from calf thymus (to apparent homogeneity)
T1 sequence (P28339 whole entry, stated change not applied, chain 1 of 2): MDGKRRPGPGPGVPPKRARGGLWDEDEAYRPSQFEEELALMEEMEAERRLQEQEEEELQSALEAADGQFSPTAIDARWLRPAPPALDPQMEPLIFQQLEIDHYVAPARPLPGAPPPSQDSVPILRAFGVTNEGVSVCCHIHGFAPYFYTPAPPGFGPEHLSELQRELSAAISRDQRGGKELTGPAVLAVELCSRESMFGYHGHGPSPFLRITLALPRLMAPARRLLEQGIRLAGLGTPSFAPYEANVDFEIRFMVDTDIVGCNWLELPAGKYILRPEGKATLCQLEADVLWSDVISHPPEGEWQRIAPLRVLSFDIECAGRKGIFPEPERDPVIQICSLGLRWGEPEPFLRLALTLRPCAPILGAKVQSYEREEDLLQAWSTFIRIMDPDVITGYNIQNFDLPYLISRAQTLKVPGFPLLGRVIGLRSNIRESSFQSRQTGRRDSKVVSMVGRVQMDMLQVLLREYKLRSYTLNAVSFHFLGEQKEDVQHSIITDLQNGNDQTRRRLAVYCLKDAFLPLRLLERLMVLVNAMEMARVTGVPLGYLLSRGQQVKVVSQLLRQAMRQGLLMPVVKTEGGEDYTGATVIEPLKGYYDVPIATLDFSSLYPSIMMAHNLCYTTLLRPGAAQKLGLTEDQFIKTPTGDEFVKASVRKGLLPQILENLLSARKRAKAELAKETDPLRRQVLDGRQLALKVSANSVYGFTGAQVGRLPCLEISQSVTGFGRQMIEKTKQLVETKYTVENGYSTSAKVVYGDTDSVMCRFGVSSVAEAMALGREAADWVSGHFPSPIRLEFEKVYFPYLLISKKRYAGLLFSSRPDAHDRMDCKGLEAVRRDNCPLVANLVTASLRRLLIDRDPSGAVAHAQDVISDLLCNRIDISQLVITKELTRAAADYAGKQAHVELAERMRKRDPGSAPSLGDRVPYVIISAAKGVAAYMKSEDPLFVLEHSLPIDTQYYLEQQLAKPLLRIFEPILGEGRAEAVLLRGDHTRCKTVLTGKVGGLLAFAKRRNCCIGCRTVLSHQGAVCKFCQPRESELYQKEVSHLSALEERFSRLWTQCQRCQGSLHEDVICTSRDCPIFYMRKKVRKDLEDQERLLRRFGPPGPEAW
T1 sequence (P49004 whole entry, stated change not applied, chain 2 of 2): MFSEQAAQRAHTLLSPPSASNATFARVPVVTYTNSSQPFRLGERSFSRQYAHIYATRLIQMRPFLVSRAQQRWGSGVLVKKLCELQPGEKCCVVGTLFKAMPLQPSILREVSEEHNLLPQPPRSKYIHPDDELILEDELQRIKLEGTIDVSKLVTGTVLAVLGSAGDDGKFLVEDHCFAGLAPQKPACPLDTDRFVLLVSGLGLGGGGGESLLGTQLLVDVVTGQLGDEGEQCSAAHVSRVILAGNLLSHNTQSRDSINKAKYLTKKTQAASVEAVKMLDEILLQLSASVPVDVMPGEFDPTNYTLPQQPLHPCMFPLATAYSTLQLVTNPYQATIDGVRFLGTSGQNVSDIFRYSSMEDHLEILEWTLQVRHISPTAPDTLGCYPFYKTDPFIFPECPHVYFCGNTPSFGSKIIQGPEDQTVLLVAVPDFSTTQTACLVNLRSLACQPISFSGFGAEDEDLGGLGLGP
Experiment: native gel or EMSA; nondenaturing PAGE band mobility shift of 32P-labelled 30-21-mer template-primer (0.1 pmol) with 10 ng pol δ and 70 ng PCNA; without MgCl2, 3 mM EDTA in incubation and gel buffer; essentially qualitative; the complex holds DNA as well
Conditions: both partners purified

B1: NH2-terminally his-tagged Drosophila PCNA with amino acids 119-133 replaced by the corresponding human sequence (other, Drosophila melanogaster | human, UniProt P17917 1-118, looked up)
chain: MFEARLGQATILKKILDAIKDLLNEATFDCSDSGIQLQAMDNSHVSLVSLTLRSDGFDKFRCDRNLSMGMNLGSMAKILKCANNEDNVTMKAQDNADTVTIMFESANQEKVSDYEMKLMDLDVEQLGIPEQEYSCVVRMPAMEFARICRDLAQFSESVVICCTKEGVKFSASGDVGTANIKLAQTGSVDKEEEAVIIEMQEPVTLTFACRYLNAFTKATPLSTQVQLSMCADVPLVVEYAIKDLGHIRYYLAPKIEDNET
notes: PCNA, Drosophila melanogaster, the stretch before the interdomain connector loop (up to residue 118); PCNA, Drosophila melanogaster, the stretch after the interdomain connector loop (from residue 134); source: E. coli M15 [pREP4], purified (Ni2+-IDA Sepharose); not shown: His tag, N-terminal, kept
binding result: binds

B2: NH2-terminally his-tagged Drosophila PCNA with glutamine 123 mutated to valine (natural protein, Drosophila melanogaster, UniProt P17917 1-260, looked up)
chain: B1 chain with D120N, Q125H, Q131T, E132D, Y133F
notes: proliferating cell nuclear antigen (PCNA), Drosophila melanogaster, with Q123V; also called Q123V dPCNA; Q123V; source: E. coli M15 [pREP4], purified (Ni2+-IDA Sepharose); not shown: His tag, N-terminal, kept
binding result: binds
